Source: article PMC8044227, “Cardiolipin enhances the enzymatic activity of cytochrome bd and cytochrome bo3 solubilized in dodecyl-maltoside” (Scientific Reports, 2021)

Substrate: COc1c(O)c(C)c(CC=C(C)C)c(O)c1OC
Assay: O2 consumption, Clark-type electrode
Format: biochemical, Escherichia coli
Conditions: no cardiolipin, 0.025% DDM, 50 mM MOPS, 100 mM NaCl, pH 7.5, 37 °C, 10 mM DTT

B1: cytochrome bd (E. coli) (Escherichia coli K-12) (protein)
chain: MLDIVELSRLQFALTAMYHFLFVPLTLGMAFLLAIMETVYVLSGKQIYKDMTKFWGKLFGINFALGVATGLTMEFQFGTNWSYYSHYVGDIFGAPLAIEGLMAFFLESTFVGLFFFGWDRLGKVQHMCVTWLVALGSNLSALWILVANGWMQNPIASDFNFETMRMEMVSFSELVLNPVAQVKFVHTVASGYVTGAMFILGISAWYMLKGRDFAFAKRSFAIAASFGMAAVLSVIVLGDESGYEMGDVQKTKLAAIEAEWETQPAPAAFTLFGIPDQEEETNKFAIQIPYALGIIATRSVDTPVIGLKELMVQHEERIRNGMKAYSLLEQLRSGSTDQAVRDQFNSMKKDLGYGLLLKRYTPNVADATEAQIQQATKDSIPRVAPLYFAFRIMVACGFLLLAIIALSFWSVIRNRIGEKKWLLRAALYGIPLPWIAVEAGWFVAEYGRQPWAIGEVLPTAVANSSLTAGDLIFSMVLICGLYTLFLVAELFLMFKFARLGPSSLKTGRYHFEQSSTTTQPAR
notes: CydABX complex, Strep-tag, expressed in E. coli MB43, streptactin-purified in DDM
- Km: 95 ± 16 µM

B2: cytochrome bo3 (E. coli) (Escherichia coli K-12) (protein)
chain: MFGKLSLDAVPFHEPIVMVTIAGIILGGLALVGLITYFGKWTYLWKEWLTSVDHKRLGIMYIIVAIVMLLRGFADAIMMRSQQALASAGEAGFLPPHHYDQIFTAHGVIMIFFVAMPFVIGLMNLVVPLQIGARDVAFPFLNNLSFWFTVVGVILVNVSLGVGEFAQTGWLAYPPLSGIEYSPGVGVDYWIWSLQLSGIGTTLTGINFFVTILKMRAPGMTMFKMPVFTWASLCANVLIIASFPILTVTVALLTLDRYLGTHFFTNDMGGNMMMYINLIWAWGHPEVYILILPVFGVFSEIAATFSRKRLFGYTSLVWATVCITVLSFIVWLHHFFTMGAGANVNAFFGITTMIIAIPTGVKIFNWLFTMYQGRIVFHSAMLWTIGFIVTFSVGGMTGVLLAVPGADFVLHNSLFLIAHFHNVIIGGVVFGCFAGMTYWWPKAFGFKLNETWGKRAFWFWIIGFFVAFMPLYALGFMGMTRRLSQQIDPQFHTMLMIAASGAVLIALGILCLVIQMYVSIRDRDQNRDLTGDPWGGRTLEWATSSPPPFYNFAVVPHVHERDAFWEMKEKGEAYKKPDHYEEIHMPKNSGAGIVIAAFSTIFGFAMIWHIWWLAIVGFAGMIITWIVKSFDEDVDYYVPVAEIEKLENQHFDEITKAGLKNGN
notes: His-tagged complex overexpressed in E. coli GO105/pJRhisA, Ni-Sepharose-purified in DDM
- Km: 56 ± 13 µM
